The subject of one data set is mice. Briefly: Oral immunogenicity of tomato sNV110-2 powder versus gavaged iNV VLPs. The class given is in vivo, mouse. On the procedure: FIGS. 23A-B show the immunologic response of mice to rNV-transgenic tomato. […] Five mice in each group ingested 1.2 g, 1.5 g or 2.3 g of tomato powder mixed with 0.6 volume of water, on days 1, 4, 17, and 20. One group was gavaged with 100 g iNV VLPs each. Nontransgenic tomato powder was fed to a negative control group. […] Standard errors were calculated on the log-transformed titers.
Three doses of tomato sNV110-2 powder (1.5 gm, 2.5 gm, or 5 gm) were provided on days 1, 4, 17, and 20. The actual doses ingested by each mouse were, on average, 1.2, 1.5 and 2.2 gm each feeding, containing 192, 240, and 352 μg rNV/dose, respectively, or 60, 75, and 1101 g VLPs/dose. Nontransgenic tomato TA234 powder (5 gram per mouse per feed) were given to one control group (−), and 100 μg purified iNV VLPs were orally administered by gavage to another control group (+). Serum and fecal antibodies were measured by ELISA, and GMTs were calculated for each group of mice. All pre-immune serum and fecal samples were negative for rNV-specific IgG and IgA, as were control group (−) (titers<20; the lowest dilution tested). […] No significant difference (p=0.05) in primary titers was observed among groups. […] Intestinal antibody responses reached their peaks at 27 dpi with IgA GMTs ranging from 10681 to 19127. […] In contrast, the control i-rNV gavage group had their maximum levels of IgG GMT=826 and IgA GMT=1748, which were 8.2 and 6.2 fold less than the group that ingested 1.2 gram of sNV110-2 powder (p<0.0183). Further, long-term serum antibody responses declined to baseline in 3 months (IgG GMT=58 at 87 dpi).

For data set [1] the following is noted: low pH, lyophilized, stored long term at 4° C.; cited from earlier work.
The mark [2] stands for this setting: day 11, gavage of purified iNV VLPs (100 μg).

B1: iNV VLPs: purified insect cell (baculovirus) derived recombinant Norwalk virus virus-like particles, control reference antigen (protein)
chain: MMMASKDATSSVDGASGAGQLVPEVNASDPLAMDPVAGSSTAVATAGQVNPIDPWIINNFVQAPQGEFTISPNNTPGDVLFDLSLGPHLNPFLLHLSQMYNGWVGNMRVRIMLAGNAFTAGKIIVSCIPPGFGSHNLTIAQATLFPHVIADVRTLDPIEVPLEDVRNVLFHNNDRNQQTMRLVCMLYTPLRTGGGTGDSFVVAGRVMTCPSPDFNFLFLVPPTVEQKTRPFTLPNLPLSSLSNSRAPLPISSMGISPDNVQSVQFQNGRCTLDGRLVGTTPVSLSHVAKIRGTSNGTVINLTELDGTPFHPFEGPAPIGFPDLGGCDWHINMTQFGHSSQTQYDVDTTPDTFVPHLGSIQANGIGSGNYVGVLSWISPPSHPSGSQVDLWKIPNYGSSITEATHLAPSVYPPGFGEVLVFFMSKMPGPGAYNLPCLLPQEYISHLASEQAPTVGEAALLHYVDPDTGRNLGEFKAYPDGFLTCVPNGASSGPQQLPINGVFVFVSWVSRFYQLKPVGTASSARGRLGLRR
With B1, in the data set on mice (setting [2]), the “IgA GMT” value came out at 62, the “IgG GMT” value amounted to 18, the “mice with primary intestinal antibody responses” value is 2 of 5 and the “mice with primary serum antibody responses” value is listed as 1 of 5. In the data set on mice (i-rNV gavage control group), the “maximum IgA GMT” value was 1748 and the “maximum IgG GMT” value was 826. In addition, the “long-term IgG GMT” value with mice (i-rNV gavage group, 87 dpi) came out at 58. In addition, in the data set with mice (p<0.0183), the “maximum IgA GMT, fold less than group ingesting 1.2 gram sNV110-2 powder” value was 6.2 fold and the “maximum IgG GMT, fold less than group ingesting 1.2 gram sNV110-2 powder” value stood at 8.2 fold. The stability result in data set [1] is listed as “stable”.

(Values after patent publication US7879338B2, “Vectors and methods for immunization against norovirus using transgenic plants” (Boyce Thompson Institute for Plant Research, priority 2003, dated 2011).)
